Reference: the supplement of paper PMC9170038

Test system: MS2 coat protein
Assay: apparent KD of MS2 coat protein; designed switch direction (-1 OFF switch, 1 ON switch): -1; higher = weaker reporter binding
Procedure, shortened: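 On Illumina chips, designed RNA switches with common flanks were made by stalled E. coli RNA polymerase. Titrations with SNAP-549-labelled MS2 coat protein, doubling from 0.7 or 1.5 nM to 3 µM, were done with no input, with 200 uM small-molecule ligand, or with an oligonucleotide input. Apparent KD is the median per design over clusters, from curve fits of normalised cluster fluorescence.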

[1] = Eterna round: R95, input ligand: FMN 200 uM
[2] = Eterna round: R95, input ligand: microRNA oligo, concentration not stated
[3] = Eterna round: R95, input ligand: none
[4] = input ligand: microRNA oligo, concentration not stated

Sequence | apparent KD of MS2 coat protein [1] [nM] | apparent KD of MS2 coat protein [2] [nM] | apparent KD of MS2 coat protein [3] [nM] | apparent KD of MS2 coat protein (input ligand: FMN 200 uM) [nM] | apparent KD of MS2 coat protein (input ligand: none) [nM] | apparent KD of MS2 coat protein [4] [nM]
GGUCGAAAACAGCUCCGCGCUGCCCUCGACCGCUCAUUUACAUGAGGAUCACCCAUGUUUUUUGCUUGUCUUGUUUC [Esrionus] (puzzle: Sensor v3, turn-off variant 2) | 18.3 | 80.1 | 22.9 | – | – | –
UUUUAUUGCAAGGAUAUGCAAAUUAUUAUUAAUGCAGAAGGUGCUACAUGAGGAUCACCCAUGUUUCUGGGUUU [JR_E6_Sub043] (puzzle: Exclusion 6) | – | 110 | – | – | – | –
GAUUAACAUGAGGAUCACCCAUGUGAGGAUAUGAACUUGCCCACUUACCAGAUAAAGUUUAGAAGGCGCAUUCU [1986#35] (Eterna round: R97, puzzle: Exclusion 1) | – | – | – | 47.3 | 30.4 | –
GCCGAAAGCGUAGGAUAUUGAAUAAAGCGGAAACGCAAGACAUGAGGAUCACCCAUGUGUCCGGACGAGAAGGGCGAAAGCGGC [AK ExNG2-V2-2] (Eterna round: R96, puzzle: Exclusion NG 2) | – | – | – | 33.6 | 35.3 | 24.1
CGUGUCUUUCACGUGAGUGGUGGGUGCAACAGGUGGGAAACAUGAGGAUCACCCAUGUCCUCAUUUGCUCGUCUUAU [Grok-var2-02] (puzzle: Sensor v3, turn-off variant 2) | 686 | 457 | 572 | – | – | –
GAGAAGGUAGGAUAUACGAAUAAAUAGGGUAGUAAUAAUACACAUGAGGAUCACCCAUGUAGAAGGACCAAUAG [Mat - Exclusion 2 - Mod of my Tesla design - D40] (puzzle: Exclusion 2) | 42.5 | 20.8 | 24.9 | – | – | –
AGGACGGCAGGAUAUACAUGAGGAUCACCCAUGUCUGGUGUCGAGCUAAUUGUGCAUAGUAGAAGGGUCGCUCC [Eternabot (L1) Solution 39] (Eterna round: R97, puzzle: Exclusion 3) | – | – | – | 204 | 62.1 | –
UUUUCGUAAGGAUAUGGUUAGAUCUACGAAAGUAGAUCUAACCAGAAGGUACAUGAGGAUCACCCAUGUUGGUA [Mod of Brourd 22 - Jieux - Exclusion 4] (Eterna round: R97, puzzle: Exclusion 4) | – | – | – | 79.8 | 29.9 | –
CCAUCGUGUGUGAGGAUAUGCUGGUCCUUGGAUCAGCAGAAGGCACAUGAGGAUCACCCAUGUGAAAACGGUGG [Mat - Exclusion 4 - JL Mod - D86] (puzzle: Brourd's mod of Exclusion 4) | 67 | 22.3 | 23.9 | – | – | –
GUAGAGUCAGGAUAUACAAGAUCGAUAGAUCGGCGGUCCAUACAUGAGGAUCACCCAUGUAGAAGGGACUCUAC [Mat - Exclusion 2 - Eli Mod - D5] (Eterna round: R97, puzzle: Exclusion 2) | – | – | – | 514 | 27.2 | –
GUAAAGUGAGGAUAUGGUAAAUUAAUUAUUAAUUAAUUAAUCCAGAAGGCACAUGAGGAUCACCCAUGUAUAUG [Mat - Exclusion 4 - D88] (puzzle: Exclusion 4) | – | 30 | – | – | – | –
CGUCAGAUCGCAGGAUAUGUUAGAUGAGCACAGAAUGUCCAGACCACAUGAGGAUCACCCAUGUAACAGAAGGGCGGUCUACGG [Eternabot solution 29] (Eterna round: R96, puzzle: Exclusion NG 2) | – | – | – | 79.3 | 95.6 | 195
GUGACCAUAGGAUAUACAUGAGGAUCACCCAUGUGCAGGUCGGAAGACCCGCGGUCAUGUAGAAGGAUGUAAUU [EX3 A.23] (Eterna round: R97, puzzle: Exclusion 3) | – | – | – | 18.2 | 16.2 | –
GGUCGAGAAGUUAGGAUAUCGAUAAAACAGAAAUUUGAGAAGGGACUUGAGGAUCACCCAAGUUAUUGGUUCUC [Anaranle] (Eterna round: R97, puzzle: Brourd's mod of Exclusion 4) | – | – | – | 17.8 | 19.6 | –
GGUGGACAUGAGGAUCACCCAUGUGAGGAUAUCGGCUGGCUAGCGGCGGAUGGCUUCUCGAGAAGGCGCAUAGU [Exclusion 1 V81] (puzzle: Exclusion 1) | – | 62.7 | – | – | – | –
UUAUAUAGUGUGAGGAUAUGCUGGUCCUUGGAUCAGCAGAAGGCACAUGAGGAUCACCCAUGUAGUUUAUUUUU [Mat - Exclusion 4 - JL Mod - D4] (puzzle: Brourd's mod of Exclusion 4) | – | 25.9 | – | – | – | –
GCGUGUGCCUAGGAUAUUGGGAAUAUGCAGAAACGAGAAGGAGGCACAUGAGGAUCACCCAUGUGAUGAAAAGA [Teesedri] (puzzle: Exclusion 6) | 16.7 | 45.6 | 61.7 | – | – | –

Sequence | apparent KD of MS2 coat protein [1] [nM] | apparent KD of MS2 coat protein [2] [nM] | apparent KD of MS2 coat protein [3] [nM] | apparent KD of MS2 coat protein (input ligand: FMN 200 uM) [nM] | apparent KD of MS2 coat protein (input ligand: none) [nM] | apparent KD of MS2 coat protein [4] [nM]
ACAUGAGGAUCACCCAUGUGACCACAAUGGCUGAUGUAACAACAGGAUAUGUGUGAAUAUCUAACACAGAAGGGUUUUGACUGG [Deportation 58 - Jieux - Exclusion NG 3] (Eterna round: R96, puzzle: Exclusion NG 3) | – | – | – | 76.9 | 75.9 | 59.3
UUUAUGUGAGGAUAUAGUACUCCUUCUAUUAUUAUUGAGUACUAGAAGGCACAUGAGGAUCACCCAUGUAGUAC [Ex4 - 3 - 37] (puzzle: Exclusion 4) | – | 24.3 | – | – | – | –
ACAUGAGGAUCACCCAUGUCCGGCUGGUCUGUCUCGGCUGUCGAGGAUAUAGCUCGGUAUCCGCGCUAGAAGGCGGGAGCCGGC [Aenatbe mod 90] (Eterna round: R96, puzzle: Exclusion NG 3) | – | – | – | 98 | 72.7 | 43.5
AAUAAUAAACAAGCUUUUUACAUGAGGAUCACCCAUGUCCUCUGCUCGUCUUAUCUUGGGCUUUUUUUGGGUUCGGG [-16.4, -45 kcal, A 21%] (Eterna round: R97, puzzle: Sensor, turn-off variant 1) | – | – | – | 813 | 891 | –
GAAAACGCAGAGGAUAUUUCAGGUCAAAGCUGCAAAGAAGGCUGCACAUGAGGAUCACCCAUGUGGUCAAUAAA [Mod of Quesina 21 - Jieux - Exclusion 6] (Eterna round: R97, puzzle: Exclusion 6) | – | – | – | 419 | 34.3 | –
GGUACCUCUGUUAGGAUAUUGUUAGUGUGAAGCGACGAGAAGGAACAUGAGGAUCACCCAUGUUGCAUCGUAAA [Eternabot (L2) Solution 54] (Eterna round: R97, puzzle: Brourd's mod of Exclusion 4) | – | – | – | 152 | 27.1 | –
GCAUGGGCCGUCAGGAUAUAGGCGCCGUGAAGGUAUUAGAAGGGACAUGAGGAUCACCCAUGUAUGAGAAAAGA [Edtioresor] (puzzle: Brourd's mod of Exclusion 4) | – | 33.7 | – | – | – | –
AAUAACAGAGGAUAUACUAUUUUAUGUAUUUAUUAUUUUAAACAUGAGGAUCACCCAUGUAGAAGGCUGAAUGA [JMF 54] (puzzle: Exclusion 2) | 20.6 | 21.6 | 21.5 | – | – | –
GGCACCGUAGGAUAUUGUGGUGCAGACAUGAGGAUCACCCAUGUUGAUCCGGGACUGCAGCGAGAAGGACGGGAAA [Eternabot (Original) Solution 2] (Eterna round: R97, puzzle: Exclusion 5) | – | – | – | 284 | 344 | –
UUGUUGUAUGUAGGAUAUGCGUAUUAUUAUUAUGCAGAAGGACAUGAGGAUCACCCAUGUGUAUUAUUAUUAUAUAUUAUAUAU [Title] (Eterna round: R96, puzzle: Exclusion NG 1) | – | – | – | 44.3 | 19.7 | 20.8
UCAGGAGCAGGAUAUGCAAUCGUGCUUCGGCACGUAAGGUCACAUGAGGAUCACCCAUGUAGAAGGGCUCCUGA [E2/4-D2] (Eterna round: R97, puzzle: Exclusion 2) | – | – | – | 38.4 | 18.4 | –
ACAUGUCAUUGAGGAUAUUGCAAACAUGAGGAUCACCCAUGUAUACGGAUGCUCUUACGUGGGUUCGAGAAGGCGAUGUACAUU [Ex NG2 #92] (Eterna round: R96, puzzle: Exclusion NG 2) | – | – | – | 819 | 429 | 345
ACAAGCUAUAUGCUCGGUUACAUGAGGAUCACCCAUGUACUCAUGUUCUUAUGUACUGACACGAAAGUGUUAGUAAU [AK-miRNA-r3-1] (Eterna round: R97, puzzle: Sensor, turn-off variant 1) | – | – | – | 110 | 122 | –
GGUCAGAUGGUAGGAUAUCCAUAUUGAGUGACCCUUUCAUAACAUGAGGAUCACCCAUGUCGGUGGGAGAAGGGCCGUACGGCG [salish99_ExNG02_R04_015] (Eterna round: R96, puzzle: Exclusion NG 2) | – | – | – | 176 | 114 | 71.2
UCAAGUAUGUAGGAUAUGAUGUGAUUUUACAUAUCAGAAGGACGUACAUGAGGAUCACCCAUGUAACUUGCAUG [Exclusion 6 - B - 12:a] (puzzle: Exclusion 6) | – | 86.9 | – | – | – | –
GUGGAACAAGGAUAUCUAACCUCGGACAUGAGGAUCACCCAUGUAUGUCUCAAGAGACCUAGAGAAGGUGUUCGUG [Eternabot (L1) Solution 32] (Eterna round: R97, puzzle: Exclusion 5) | – | – | – | 50.8 | 30.7 | –
GAAAGCUUUGAGCUCGAUCACAUGAGGAUCACCCAUGUGGGAGCCAGGCGACGGCAUUCUGCGAGGGCGACUUUUGG [Eternabot (L2) Solution 42] (Eterna round: R97, puzzle: Sensor, turn-off variant 1) | – | – | – | 17.8 | 15.4 | –
